Data: PMC3672946 (Nature, 2013)

B2: Nqo14 (natural protein, Thermus thermophilus, UniProt Q56229 1-427, looked up)
chain: MTLAILAVFSVALTLLGFVLPPQGVKRATLLGLALALASLLLTWGKPFAFGPYAVDGVSQVFTLLALLGALWTVGLVRSGRFEFYLLVLYAALGMHLLASTRHLLLMLVALEALSLPLYALATWRRGQGLEAALKYFLLGALAAAFFLYGAALFYGATGSLVLGAPGEGPLYALALGLLLVGLGFKAALAPFHFWTPDVYQGSPTPVVLFMATSVKAAAFAALLRVAAPPEALALLVALSVVVGNLAALAQKEAKRLLAYSSIAHAGYMALALYTGNAQALGFYLLTYVLATGLAFAVLSQISPDRVPLEALRGLYRKDPLLGLAFLVAMLSLLGLPPLAGFWGKYLAFAEAARAGAWGVLVLALVTSAVSAYYYLGLGLAVFARPEETPFRPGPPWARAAVVAAGVLLLALGLLPGLVLPALAAGG

Columns and labels:
Assay in all cases: crystal structure
Nqo12 = target: T1, Nqo12 (Thermus thermophilus, UniProt Q56227 1-606)
T1 sequence (looked up): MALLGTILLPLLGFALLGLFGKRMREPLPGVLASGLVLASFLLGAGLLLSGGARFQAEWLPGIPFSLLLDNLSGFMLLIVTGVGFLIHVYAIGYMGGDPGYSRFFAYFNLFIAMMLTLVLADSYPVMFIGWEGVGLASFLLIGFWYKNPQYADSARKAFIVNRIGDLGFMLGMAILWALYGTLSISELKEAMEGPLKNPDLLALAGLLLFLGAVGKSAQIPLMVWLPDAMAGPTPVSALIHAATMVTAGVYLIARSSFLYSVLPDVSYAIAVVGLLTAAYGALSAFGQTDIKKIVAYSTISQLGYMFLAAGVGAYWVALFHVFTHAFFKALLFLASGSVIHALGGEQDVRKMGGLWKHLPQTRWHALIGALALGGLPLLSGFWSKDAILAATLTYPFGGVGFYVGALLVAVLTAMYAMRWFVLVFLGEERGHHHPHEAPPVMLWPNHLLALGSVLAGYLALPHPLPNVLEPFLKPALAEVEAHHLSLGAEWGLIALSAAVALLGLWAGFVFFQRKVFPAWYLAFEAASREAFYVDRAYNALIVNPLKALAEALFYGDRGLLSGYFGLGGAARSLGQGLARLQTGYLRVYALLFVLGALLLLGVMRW

Nqo8 = target: T2, Nqo8 (Thermus thermophilus, UniProt Q60019 1-365)
T2 sequence (looked up): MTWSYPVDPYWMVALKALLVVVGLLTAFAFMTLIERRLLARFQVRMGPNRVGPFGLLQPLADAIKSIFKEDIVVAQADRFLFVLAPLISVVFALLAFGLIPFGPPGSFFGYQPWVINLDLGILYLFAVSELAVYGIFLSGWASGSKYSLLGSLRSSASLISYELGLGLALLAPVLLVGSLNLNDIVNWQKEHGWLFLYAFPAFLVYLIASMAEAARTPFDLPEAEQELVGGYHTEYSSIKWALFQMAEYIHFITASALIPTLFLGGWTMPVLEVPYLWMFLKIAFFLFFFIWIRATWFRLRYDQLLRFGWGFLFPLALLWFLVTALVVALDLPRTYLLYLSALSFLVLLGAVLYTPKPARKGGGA

Nqo10 = target: T3, Nqo10 (Thermus thermophilus, UniProt Q56225 1-176)
T3 sequence (looked up): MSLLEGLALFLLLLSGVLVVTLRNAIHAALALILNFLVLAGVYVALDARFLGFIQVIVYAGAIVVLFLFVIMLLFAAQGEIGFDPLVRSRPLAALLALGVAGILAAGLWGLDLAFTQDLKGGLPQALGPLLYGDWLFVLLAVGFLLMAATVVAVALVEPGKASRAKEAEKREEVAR

Nqo14 = target: B2

B1: Nqo13 (natural protein, Thermus thermophilus, UniProt Q56228 1-469, looked up)
chain: MVVLAVLLPVVFGALLLLGLPRALGVLGAGLSFLLNLYLFLTHPGGVAHAFQAPLLPGAGVYWAFGLDGLSALFFLTIALTVFLGALVARVEGRFLGLALLMEGLLLGLFAARDLLVFYVFFEAALIPALLMLYLYGGEGRTRALYTFVLFTLVGSLPMLAAVLGARLLSGSPTFLLEDLLAHPLQEEAAFWVFLGFALAFAIKTPLFPLHAWLPPFHQENHPSGLADALGTLYKVGVFAFFRFAIPLAPEGFAQAQGLLLFLAALSALYGAWVAFAAKDFKTLLAYAGLSHMGVAALGVFSGTPEGAMGGLYLLAASGVYTGGLFLLAGRLYERTGTLEIGRYRGLAQSAPGLAALALILFLAMVGLPGLSGFPGEFLTLLGAYKASPWLAALAFLSVIASAAYALTAFQKTFWEEGGSGVKDLAGAEWGFALLSVLALLLMGVFPGYFARGLHPLAEAFAKLLGGGA
binding result (Nqo12): binds

B2
binding result (Nqo12): binds

B3: Nqo7 (natural protein, Thermus thermophilus, UniProt Q56217 1-119, looked up)
chain: MAPIQEYVGTLIYVGVALFIGVAALLVGALLGPKKPGRAKLMPYESGNDPAGEVKRFPVHFYVVAMLFILFDVEVAFLWPYAVSAGGLGLYGFLGVLAFTLLLFVGFLYEWWKGVMRWH
binding result (Nqo8): binds

B4: Nqo11 (natural protein, Thermus thermophilus, UniProt Q56226 1-95, looked up)
chain: MSYLLTSALLFALGVYGVLTRRTAILVFLSIELMLNAANLSLVGFARAYGLDGQVAALMVIAVAAAEVAVGLGLIVAIFRHRESTAVDDLSELRG
binding result (Nqo10): binds | binding result (Nqo14): binds
